Values of other authors, collected in article PMC4385930.

Assays:
Bak BH3 (Homo sapiens) = Bak BH3 (Homo sapiens) (UniProt Q16611)
Bim BH3 (Homo sapiens) = Bim BH3 (Homo sapiens) (UniProt O43521)
Bax BH3 (Homo sapiens) = Bax BH3 (Homo sapiens) (UniProt Q07812)

Substance: F1L (from UniProt P24356)
- Kd (Bak BH3 (Homo sapiens)): 4300 nM
- Kd (Bim BH3 (Homo sapiens)): 200 nM
- Kd (Bax BH3 (Homo sapiens)): 2000 nM
